Assay results: article PMC4973710

Biological target: CPR-DA: human cytochrome P450 reductase doubly labelled with Cy5 (donor) and Alexa 750 (acceptor) (human) (UniProt P16435)
Chain of UniProt P16435 (P16435 61-677): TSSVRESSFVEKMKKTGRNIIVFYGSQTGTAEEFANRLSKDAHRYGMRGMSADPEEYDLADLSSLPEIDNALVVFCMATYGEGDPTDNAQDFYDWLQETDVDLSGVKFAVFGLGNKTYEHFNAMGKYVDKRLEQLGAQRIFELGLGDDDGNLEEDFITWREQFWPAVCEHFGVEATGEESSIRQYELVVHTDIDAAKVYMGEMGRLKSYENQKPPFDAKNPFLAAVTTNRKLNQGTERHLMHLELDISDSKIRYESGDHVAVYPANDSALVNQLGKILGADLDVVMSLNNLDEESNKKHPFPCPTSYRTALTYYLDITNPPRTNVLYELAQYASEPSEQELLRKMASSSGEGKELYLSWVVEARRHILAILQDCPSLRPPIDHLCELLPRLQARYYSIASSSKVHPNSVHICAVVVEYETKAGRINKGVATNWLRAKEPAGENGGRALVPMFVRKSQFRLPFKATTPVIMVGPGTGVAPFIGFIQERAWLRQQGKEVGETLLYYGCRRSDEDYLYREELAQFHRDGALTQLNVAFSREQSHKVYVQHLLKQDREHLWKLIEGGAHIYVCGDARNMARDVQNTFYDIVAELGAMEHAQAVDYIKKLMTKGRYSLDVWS

bovine heart cytochrome c (from UniProt P62894 1-105) (natural protein)
second-order rate constant of ferric cyt c reduction by equimolar NADPH-reduced CPR-DA, first kinetic phase (UV-Vis double-mixing stopped-flow): 1.01e+06 M⁻¹ s⁻¹
second-order rate constant of ferric cyt c reduction by equimolar NADPH-reduced CPR-DA, second kinetic phase (UV-Vis double-mixing stopped-flow): 340000 M⁻¹ s⁻¹
